In patent US20230279406A1 one finds recombination upon caffeine induction, tandem against single CaffVHH split Cre 270/271 and gRNA induced mCherry knockdown efficiency, no CID domain data, which are given here for three molecules.

What all share (experiment): cell-based or functional assay
For assay [1], the target named is CD176 PV1-tandem CaffVHH-L1-iCre-271C-NLS-BGHpA.
In assay [2] the target is T1, CD380 PV1-RfxCas13d-656C-NLS-BGHpA.
T1 sequence: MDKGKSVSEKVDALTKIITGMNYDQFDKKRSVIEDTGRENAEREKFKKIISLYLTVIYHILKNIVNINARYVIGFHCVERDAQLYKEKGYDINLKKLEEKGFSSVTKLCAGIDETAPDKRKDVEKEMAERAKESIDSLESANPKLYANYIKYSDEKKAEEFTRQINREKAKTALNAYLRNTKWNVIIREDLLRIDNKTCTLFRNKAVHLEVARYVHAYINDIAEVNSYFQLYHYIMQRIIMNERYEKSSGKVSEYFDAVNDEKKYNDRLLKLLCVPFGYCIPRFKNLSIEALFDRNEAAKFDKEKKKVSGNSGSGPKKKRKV

Assay [3] addresses T2, CD376 PV1-RfxCas13d-566C-NLS-BGHpA.
T2 sequence: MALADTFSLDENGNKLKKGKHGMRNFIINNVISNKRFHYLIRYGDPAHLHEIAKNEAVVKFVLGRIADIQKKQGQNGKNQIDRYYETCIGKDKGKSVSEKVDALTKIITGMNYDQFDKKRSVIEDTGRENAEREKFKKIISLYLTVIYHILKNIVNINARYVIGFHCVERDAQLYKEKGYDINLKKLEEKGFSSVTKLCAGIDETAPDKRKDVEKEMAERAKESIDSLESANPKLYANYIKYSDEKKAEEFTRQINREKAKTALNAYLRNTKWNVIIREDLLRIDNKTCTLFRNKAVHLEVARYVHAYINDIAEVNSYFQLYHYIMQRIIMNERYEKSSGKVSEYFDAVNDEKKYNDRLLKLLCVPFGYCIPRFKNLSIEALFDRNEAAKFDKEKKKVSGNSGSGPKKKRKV

Sequence of CD176 PV1-tandem CaffVHH-L1-iCre-271C-NLS-BGHpA (chain, as listed by the source): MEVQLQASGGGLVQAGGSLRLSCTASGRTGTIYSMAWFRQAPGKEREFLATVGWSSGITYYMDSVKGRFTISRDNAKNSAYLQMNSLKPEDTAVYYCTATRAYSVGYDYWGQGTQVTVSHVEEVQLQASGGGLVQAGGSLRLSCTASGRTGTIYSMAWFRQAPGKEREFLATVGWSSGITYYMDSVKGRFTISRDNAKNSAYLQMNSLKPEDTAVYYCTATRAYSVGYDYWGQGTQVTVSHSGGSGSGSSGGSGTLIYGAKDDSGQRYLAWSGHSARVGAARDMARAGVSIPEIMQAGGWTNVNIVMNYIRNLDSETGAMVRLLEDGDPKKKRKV

B1: CD175 PV1-iCre-N270-L1-tandem CaffVHH-NLS-BGHpA (protein)
chain: MSNLLTVHQNLPALPVDATSDEVRKNLMDMFRDRQAFSEHTWKMLLSVCRSWAAWCKLNNRKWFPAEPEDVRDYLLYLQARGLAVKTIQQHLGQLNMLHRRSGLPRPSDSNAVSLVMRRIRKENVDAGERAKQALAFERTDFDQVRSLMENSDRCQDIRNLAFLGIAYNTLLRIAEIARIRVKDISRTDGGRMLIHIGRTKTLVSTAGVEKALSLGVTKLVERWISVSGVADDPNNYLFCRVRKNGVAAPSATSQLSTRALEGIFEATHRSGGSGSGSSGGSGTMEVQLQASGGGLVQAGGSLRLSCTASGRTGTIYSMAWFRQAPGKEREFLATVGWSSGITYYMDSVKGRFTISRDNAKNSAYLQMNSLKPEDTAVYYCTATRAYSVGYDYWGQGTQVTVSHVEEVQLQASGGGLVQAGGSLRLSCTASGRTGTIYSMAWFRQAPGKEREFLATVGWSSGITYYMDSVKGRFTISRDNAKNSAYLQMNSLKPEDTAVYYCTATRAYSVGYDYWGQGTQVTVSHPKKKRKV
With B1, the recombination upon caffeine induction, tandem against single CaffVHH split Cre 270/271 in assay [1] was below 13 fold.

B2: CD379 PV1-RfxCas13d-N655-NLS-BGHpA (protein)
chain: MIEKKKSFAKGMGVKSTLVSGSKVYMTTFAEGSDARLEKIVEGDSIRSVNEGEAFSAEMADKNAGYKIGNAKFSHPKGYAVVANNPLYTGPVQQDMLGLKETLEKRYFGESADGNDNICIQVIHNILDIEKILAEYITNAAYAVNNISGLDKDIIGFGKFSTVYTYDEFKDPEHHRAAFNNNDKLINAIKAQYDEFDNFLDNPRLGYFGQAFFSKEGRNYIINYGNECYDILALLSGLRHWVVHNNEEESRISRTWLYNLDKNLDNEYISTLNYLYDRITNELTNSFSKNSAANVNYIAETLGINPAEFAEQYFRFSIMKEQKNLGFNITKLREVMLDRKDMSEIRKNHKVFDSIRTKVYTMMDFVIYRYYIEEDAKVAAANKSLPDNEKSLSEKDIFVINLRGSFNDDQKDALYYDEANRIWRKLENIMHNIKEFRGNKTREYKKKDAPRLPRILPAGRDVSAFSKLMYALTMFLDGKEINDLLTTLINKFDNIQSFLKVMPLIGVNAKFVEEYAFFKDSAKIADELRLIKSFARMGEPIADARRAMYIDAIRILGTNLSYDELKALADTFSLDENGNKLKKGKHGMRNFIINNVISNKRFHYLIRYGDPAHLHEIAKNEAVVKFVLGRIADIQKKQGQNGKNQIDRYYETCIGKPKKKRKV
In assay [2], B2 registered a gRNA induced mCherry knockdown efficiency, no CID domain below 80%.

B3: CD375 PV1-RfxCas13d-N565-NLS-BGHpA (protein)
chain: MIEKKKSFAKGMGVKSTLVSGSKVYMTTFAEGSDARLEKIVEGDSIRSVNEGEAFSAEMADKNAGYKIGNAKFSHPKGYAVVANNPLYTGPVQQDMLGLKETLEKRYFGESADGNDNICIQVIHNILDIEKILAEYITNAAYAVNNISGLDKDIIGFGKFSTVYTYDEFKDPEHHRAAFNNNDKLINAIKAQYDEFDNFLDNPRLGYFGQAFFSKEGRNYIINYGNECYDILALLSGLRHWVVHNNEEESRISRTWLYNLDKNLDNEYISTLNYLYDRITNELTNSFSKNSAANVNYIAETLGINPAEFAEQYFRFSIMKEQKNLGFNITKLREVMLDRKDMSEIRKNHKVFDSIRTKVYTMMDFVIYRYYIEEDAKVAAANKSLPDNEKSLSEKDIFVINLRGSFNDDQKDALYYDEANRIWRKLENIMHNIKEFRGNKTREYKKKDAPRLPRILPAGRDVSAFSKLMYALTMFLDGKEINDLLTTLINKFDNIQSFLKVMPLIGVNAKFVEEYAFFKDSAKIADELRLIKSFARMGEPIADARRAMYIDAIRILGTNLSYDELKPKKKRKV
Regarding B3, in assay [3], the gRNA induced mCherry knockdown efficiency, no CID domain was below 80%.
